Data reported in patent US20210054097A1.

Key:
[1] = biological target: human activated Factor X (human) (UniProt P00742); assay: cell-based or functional assay
[2] = biological target: human plasma-derived Factor X zymogen (human) (UniProt P00742); assay: cell-based or functional assay
[3] = biological target: human plasma-derived Factor X zymogen (human) (UniProt P00742); assay: apparent KD fitted from FXa generation assay

Sequence of human plasma-derived Factor X zymogen (human) (P00742 41-179, chain 1 of 2): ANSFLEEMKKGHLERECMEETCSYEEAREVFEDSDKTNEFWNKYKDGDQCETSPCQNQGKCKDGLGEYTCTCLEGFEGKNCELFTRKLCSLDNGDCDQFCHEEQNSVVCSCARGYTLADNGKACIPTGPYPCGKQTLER
Sequence of human plasma-derived Factor X zymogen (human) (P00742 183-488, chain 2 of 2): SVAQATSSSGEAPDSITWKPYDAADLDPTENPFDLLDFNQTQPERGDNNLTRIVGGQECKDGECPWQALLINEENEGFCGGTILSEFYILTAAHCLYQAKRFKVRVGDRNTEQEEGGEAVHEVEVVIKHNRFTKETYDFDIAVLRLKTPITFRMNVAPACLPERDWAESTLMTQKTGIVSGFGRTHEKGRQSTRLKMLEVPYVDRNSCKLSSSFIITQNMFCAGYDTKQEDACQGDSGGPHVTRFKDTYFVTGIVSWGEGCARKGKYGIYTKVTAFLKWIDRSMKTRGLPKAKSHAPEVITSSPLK
Sequence of human activated Factor X (human) (P00742 41-179, chain 1 of 2): as the sequence (P00742 41-179, chain 1 of 2) above
Sequence of human activated Factor X (human) (P00742 235-488, chain 2 of 2): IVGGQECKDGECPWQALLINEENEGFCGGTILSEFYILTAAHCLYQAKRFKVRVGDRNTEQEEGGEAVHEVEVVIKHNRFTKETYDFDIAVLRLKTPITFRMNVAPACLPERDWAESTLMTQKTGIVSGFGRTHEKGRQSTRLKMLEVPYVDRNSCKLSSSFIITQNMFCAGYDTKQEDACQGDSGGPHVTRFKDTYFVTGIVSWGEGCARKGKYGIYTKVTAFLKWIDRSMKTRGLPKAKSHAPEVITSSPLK

FXa amidolytic activity (relative to free FXa, fold) [1]: 1.02 fold
Increase in FX activation (fold) [2]: < 0.6 fold
Kd [3]: 3.9 µM
Substance: Fab ACE910 anti-FX (J327/L404-k)
